Experimental data from FireProtDB (doi:10.1021/bi980431i).

Settings: Homo sapiens; pH 2.7; Thermal; DSC; glycine 0.05 M; reversible: yes; whole UniProt chain shown

B1: Lysozyme C wild type, P61626 (protein)
chain: MKALIVLGLVLLSVTVQGKVFERCELARTLKRLGMDGYRGISLANWMCLAKWESGYNTRATNYNAGDRSTDYGIFQINSRYWCNDGKTPGAVNACHLSCSALLQDNIADAVACAKRVVRDPQGIRAWVAWRNRCQNRDVRQYVQGCGV
  Tm: 64.9 °C
  heat capacity change of unfolding: 1.58 kcal/mol/K
  unfolding enthalpy (calorimetric): 114 kcal/mol
  unfolding enthalpy (van 't Hoff): 120 kcal/mol
